Biological target: T1, CEA (180 KDa glycoprotein purified from colorectal tumour liver metastases by affinity chromatography with … (UniProt P06731 35-685))
T1 construct: Native glycoprotein dried onto microtitre plates; also called purified CEA
T1 sequence (looked up): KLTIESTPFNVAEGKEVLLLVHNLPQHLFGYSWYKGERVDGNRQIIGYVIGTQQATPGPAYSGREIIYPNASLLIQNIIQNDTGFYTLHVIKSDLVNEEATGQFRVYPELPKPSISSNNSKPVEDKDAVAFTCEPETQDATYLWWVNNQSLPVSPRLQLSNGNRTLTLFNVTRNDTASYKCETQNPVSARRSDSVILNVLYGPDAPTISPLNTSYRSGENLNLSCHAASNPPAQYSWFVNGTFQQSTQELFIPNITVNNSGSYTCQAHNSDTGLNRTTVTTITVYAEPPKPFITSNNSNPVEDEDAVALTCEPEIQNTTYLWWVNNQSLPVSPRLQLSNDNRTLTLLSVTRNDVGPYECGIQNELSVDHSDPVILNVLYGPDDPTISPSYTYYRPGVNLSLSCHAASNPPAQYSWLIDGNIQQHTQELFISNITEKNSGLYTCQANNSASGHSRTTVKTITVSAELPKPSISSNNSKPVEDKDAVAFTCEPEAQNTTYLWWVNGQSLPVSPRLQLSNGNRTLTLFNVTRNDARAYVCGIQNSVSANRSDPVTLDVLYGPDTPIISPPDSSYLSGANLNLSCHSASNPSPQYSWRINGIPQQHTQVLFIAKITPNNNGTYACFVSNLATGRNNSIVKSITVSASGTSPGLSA
Test: ELISA, antigen dried onto microtitre plates (FIG. 4)
Procedure: (§1) The C14 antigen (90 KDa glycoprotein purified from saliva by affinity chromatography on C14 monoclonal), CEA (180 KDa glycoprotein purified from colorectal tumour live metastases by affinity chromatography with 365 mab) and glycolipid extract (glycolipid extracted in 3:1 methanol chloroform w/v from colorectal tumours) were dried onto microtitre plates by overnight incubation at 37° C. Binding of SC104 mab was assayed by ELISA and results expressed as absorbance 405 nm. SC101 and anti-CEA antibodies are included as positive controls.
as §1, with “Binding to purified antigen preparations. The” for “The”, “ELISA” for “ELISA and results expressed”, “described above.” for “absorbance 405 nm. SC101 and anti-CEA antibodies are included as positive controls.”

B1: SC104 monoclonal antibody (antibody, V domains shown)
VH: DVQLQESGPDLVKPSQSLSLTCTVTGYSITSGYSWHWVRQFPGNKMEWMGHIHFSGRPTYNPSLSSRISITRDTSKNQFLLQLKFVTTEDTSTYFCARKGKGSDDGLNYWGQGISVTVSS
VL: ENVLTQSPVIMSASPGEKVTMTCSASSSLSYIHWYQQKSRTSPKLWIYDTSNLASGVPGRFSGSGSGNSYSLTISSMEAEDVATYYCFQGSEYPLTFGGGTKLEMT
notes: Mouse IgG1 mab with kappa light chain, from hybridoma SC104/1E9; also called SC104 mab; SC104 antibody
B1: no binding.
